Reference: PMC3266974 (Journal of Medicinal Chemistry, 2012)

Molecular target: T1, bovine pancreas CPA (Bos taurus, UniProt P00730)
T1 sequence (P00730 111-419): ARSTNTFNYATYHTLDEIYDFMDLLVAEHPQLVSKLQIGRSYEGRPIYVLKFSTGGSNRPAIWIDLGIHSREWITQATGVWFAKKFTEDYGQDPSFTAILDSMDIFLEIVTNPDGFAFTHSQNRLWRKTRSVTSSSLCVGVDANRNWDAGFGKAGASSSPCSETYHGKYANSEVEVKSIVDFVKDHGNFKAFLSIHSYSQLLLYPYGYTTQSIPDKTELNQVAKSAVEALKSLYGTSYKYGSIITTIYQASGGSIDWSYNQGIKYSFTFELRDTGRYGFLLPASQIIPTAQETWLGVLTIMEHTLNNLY
Experiment: Inhibition of CPA, colorimetric substrate N-
Format: biochemical
Details: tested in duplicate, na = not active at 30 μM

## Peptide 6: linear version of namalide (IFKF; not fully specified; Linear (uncyclized) namalide)
  IC50: 4.5 ± 0.9 µM
